The text below walks through data of US20160137965A1.

The target in assay [1] is α6β1 integrin (UniProt P23229). Description: solid-phase binding assay: plate coated with 0.25 µg/cm^2 511E8 with 500 µg/mL gelatin, dried 1 h, 10 nM α6β1 integrin, absorbance at 490 nm.
Assay [2] addresses α6β1 integrin (UniProt P23229). Description: solid-phase binding assay: plate coated with 0.4 µg/cm^2 511E8 with 0.8 µg/cm^2 211E8, dried 24 h, 10 nM α6β1 integrin, absorbance at 490 nm.
Assay [3] addresses α6β1 integrin (UniProt P23229). Description: solid-phase binding assay: plate coated with 0.4 µg/cm^2 511E8, not dried, 10 nM α6β1 integrin.
Assay [4] deals with α6β1 integrin (UniProt P23229). Description: solid-phase binding assay: plate coated with 0.5 µg/cm^2 511E8 alone, dried 24 h, stored 1 week at 4°C, 10 nM α6β1 integrin, absorbance at 490 nm.
Assay [5] deals with α6β1 integrin (UniProt P23229). As to the kind of experiment: solid-phase binding assay: plate coated with 0.5 µg/cm^2 511E8 with 0.05% gelatin, dried 24 h, stored 1 week at 4°C, 10 nM α6β1 integrin, absorbance at 490 nm.
In assay [6] the target is α6β1 integrin (UniProt P23229). As to the kind of experiment: solid-phase binding assay: plate coated with 0.5 µg/cm^2 511E8 with 20% glucose (or some other candidates), dried 24 h, stored 1 week at 4°C, 10 nM α6β1 integrin, absorbance at 490 nm.
Assay [7] deals with α6β1 integrin (UniProt P23229). Description: solid-phase binding assay: plate coated with 0.4 µg/cm^2 511E8 with 1.6 µg/cm^2 211E8, dried 24 h, 10 nM α6β1 integrin, absorbance at 490 nm.
Assay [8] has as its target α6β1 integrin (UniProt P23229). As to the kind of experiment: solid-phase binding assay: plate coated with 0.5 µg/cm^2 511E8, not dried, 10 nM α6β1 integrin.
In assay [9] the target is α6β1 integrin (UniProt P23229). Description: solid-phase binding assay: plate coated with 0.75 µg/cm^2 511E8, dried 1 h at room temperature, 10 nM α6β1 integrin, absorbance at 490 nm.
For assay [10], the target named is α6β1 integrin (UniProt P23229). Description: solid-phase binding assay: plate coated with 0.5 µg/cm^2 511E8 with 0.1% BSA, dried 24 h, stored 1 week at 4°C, 10 nM α6β1 integrin, absorbance at 490 nm.
Assay [11] deals with α6β1 integrin (UniProt P23229). Description: solid-phase binding assay: plate coated with 1.0 µg/cm^2 511E8, not dried, 10 nM α6β1 integrin.
For assay [12], the target named is α6β1 integrin (UniProt P23229). Description: solid-phase binding assay: plate coated with 0.25 µg/cm^2 511E8 with 167 µg/mL gelatin, dried 1 h, 10 nM α6β1 integrin, absorbance at 490 nm.
The target of assay [13] is α6β1 integrin (UniProt P23229). Description: solid-phase binding assay: plate coated with 0.5 µg/cm^2 521E8, not dried, 10 nM α6β1 integrin.
The target of assay [14] is α6β1 integrin (UniProt P23229). Description: solid-phase binding assay: plate coated with 1.0 µg/cm^2 521E8, not dried, 10 nM α6β1 integrin.

Chain of UniProt P23229 (P23229 other isoform, or with tags, fused parts or gaps limits assumed, chain 1 of 2): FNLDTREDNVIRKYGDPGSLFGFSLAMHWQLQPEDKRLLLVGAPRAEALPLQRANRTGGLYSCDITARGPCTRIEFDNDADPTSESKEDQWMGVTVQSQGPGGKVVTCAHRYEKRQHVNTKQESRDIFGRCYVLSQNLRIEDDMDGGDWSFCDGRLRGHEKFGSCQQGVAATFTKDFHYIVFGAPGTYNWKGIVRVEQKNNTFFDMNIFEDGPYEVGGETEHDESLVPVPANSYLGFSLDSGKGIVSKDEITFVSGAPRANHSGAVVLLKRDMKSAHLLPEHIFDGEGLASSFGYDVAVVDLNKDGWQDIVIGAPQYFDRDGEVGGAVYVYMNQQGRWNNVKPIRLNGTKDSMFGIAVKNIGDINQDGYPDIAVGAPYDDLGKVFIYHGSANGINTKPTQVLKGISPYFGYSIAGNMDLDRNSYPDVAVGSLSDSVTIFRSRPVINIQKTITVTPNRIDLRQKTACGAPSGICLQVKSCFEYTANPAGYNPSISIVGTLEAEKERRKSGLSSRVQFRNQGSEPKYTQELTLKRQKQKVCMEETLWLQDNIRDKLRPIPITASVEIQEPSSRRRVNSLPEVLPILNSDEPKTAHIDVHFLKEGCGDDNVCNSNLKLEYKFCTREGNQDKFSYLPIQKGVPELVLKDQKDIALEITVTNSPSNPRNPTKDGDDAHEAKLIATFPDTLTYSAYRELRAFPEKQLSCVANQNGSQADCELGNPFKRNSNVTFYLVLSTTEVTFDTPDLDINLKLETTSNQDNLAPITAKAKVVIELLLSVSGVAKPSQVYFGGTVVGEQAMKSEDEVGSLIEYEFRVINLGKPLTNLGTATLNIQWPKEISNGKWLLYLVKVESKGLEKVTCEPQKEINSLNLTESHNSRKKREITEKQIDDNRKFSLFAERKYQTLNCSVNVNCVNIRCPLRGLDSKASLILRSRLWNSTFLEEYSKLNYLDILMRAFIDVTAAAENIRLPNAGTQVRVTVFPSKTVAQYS
Chain of UniProt P23229 (P05556 21-728 limits assumed, chain 2 of 2, further chain): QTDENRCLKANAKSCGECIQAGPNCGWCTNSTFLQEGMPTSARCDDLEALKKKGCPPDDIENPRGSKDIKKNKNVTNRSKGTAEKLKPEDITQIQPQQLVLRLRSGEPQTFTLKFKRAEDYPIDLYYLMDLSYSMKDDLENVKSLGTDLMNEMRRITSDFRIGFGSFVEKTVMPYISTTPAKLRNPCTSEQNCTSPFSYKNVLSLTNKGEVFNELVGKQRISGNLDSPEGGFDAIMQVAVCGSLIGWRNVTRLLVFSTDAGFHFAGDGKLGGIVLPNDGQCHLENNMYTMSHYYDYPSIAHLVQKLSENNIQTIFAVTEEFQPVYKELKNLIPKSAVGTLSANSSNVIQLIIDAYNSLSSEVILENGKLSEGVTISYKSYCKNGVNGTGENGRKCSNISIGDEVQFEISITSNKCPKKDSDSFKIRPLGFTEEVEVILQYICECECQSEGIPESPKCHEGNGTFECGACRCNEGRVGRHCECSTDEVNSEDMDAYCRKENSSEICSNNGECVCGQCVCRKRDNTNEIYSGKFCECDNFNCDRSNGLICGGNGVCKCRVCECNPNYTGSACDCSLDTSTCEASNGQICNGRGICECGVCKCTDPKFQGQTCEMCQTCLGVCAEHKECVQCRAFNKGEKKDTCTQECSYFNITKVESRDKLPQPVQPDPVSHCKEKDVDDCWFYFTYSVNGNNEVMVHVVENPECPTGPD

For the substance “Human recombinant laminin 511E8 (from UniProt O15230 2534-3327; P07942 1561-1786; P11047 1362-1608) (ligand)”, the values for the integrin binding activity after drying (percent remaining) in the assay with α6β1 integrin [1] and with α6β1 integrin [12] were 70% and 40%, respectively. Moreover, the integrin binding activity relative to undried 511E8 control with α6β1 integrin [2] was found to be 30%; with α6β1 integrin [7], 80%. In addition, the results for the absorbance at 490 nm (amount of bound α6β1 integrin) (absorbance at 490 nm) with α6β1 integrin [3], in the assay with α6β1 integrin [8] and in the assay with α6β1 integrin [11] were 1.07, 2.62 and 2.96, respectively. The integrin binding activity relative to undried 511E8 control (100%) in the assay with α6β1 integrin [4] is less than 10%; with α6β1 integrin [5], 90%; with α6β1 integrin [6], 40%; in the assay with α6β1 integrin [10] it was 90%. Also, the decrease of the amount of bound integrin after drying, against the undried control with α6β1 integrin [9] came out at 30%.

With “Human recombinant laminin 521E8 (from UniProt O15230 2534-3327; P55268 1573-1798; P11047 1362-1608) (ligand)”, the figures for the absorbance at 490 nm (amount of bound α6β1 integrin) (absorbance at 490 nm) with α6β1 integrin [13] and in the assay with α6β1 integrin [14] were 2.75 and 2.83, respectively.
